These results are taken from paper PMC9271825.

B1: Human Claudin-7 (Cldn7), wild type, His-tagged [human] / itself (parent)
chain: MANSGLQLLGFSMALLGWVGLVACTAIPQWQMSSYAGDNIITAQAMYKGLWMDCVTQSTGMMSCKMYDSVLALSAALQATRALMVVSLVLGFLAMFVATMGMKCTRCGGDDKVKKARIAMGGGIIFIVAGLAALVACSWYGHQIVTDFYNPLIPTNIKYEFGPAIFIGWAGSALVILGGALLSCSCPGNESKAGYRVPRSYPKSNSSKEYV

In this experiment the parent is B1. The experiment in a line: solubilization/centrifugation assay with SDS-PAGE densitometry. To be noted: p-buffer, n = 9, read off a plot.

For the variant MANSGLQLLGFSMALLGWVGLVACTAIPQWQMSSYAGDNIITAQAMYKGLWMDCVTQSTGMMSCKMYDSVLALSAALQATRALMVVSLVLGFLAMFVATMGMKCTRCGGDDKVKKARIAMGGGIIFIVAGLAALVACSWYGHQIVTDAYNPLIPTNIKYEFGPAIFIGWAGSALVILGGALLSCSCPGNESKAGYRVPRSYPKSNSSKEYV [chain 1 F148A], the screen value reads like this: (0 mM NaCl) 0.38 a.u; (300 mM NaCl) 0.87 a.u.
On the same counts, the results for MANSGLQLLGFSMALLGWVGLVACTAIPQWQMSSYAGDNIITAQAMYKGLWMDCVTQSTGMMSCKMYDSALALSAALQATAALMVVSLVLGFLAMFVATMGMKCTRCGGDDKVKKARIAMGGGIIFIVAGLAALVACSWYGHQIVTDAANPLIPTNIKYAAGPAIFIGWAGSALVILGGALLSCSCPGNESKAGYRVPRSYPKSNSSKEYV [chain 1 V70A R81A F148A Y149A E160A F161A] are 0.87 a.u and 0.86 a.u.
On the same counts, the results for MANSGLQLLGFSMALLGWVGLVACTAIPQWQMSSYAGDNIITAQAMYKGLWMDCVTQSTGMMSCKMYDSALALSAALQATRALMVVSLVLGFLAMFVATMGMKCTRCGGDDKVKKARIAMGGGIIFIVAGLAALVACSWYGHQIVTDFYNPLIPTNIKYEFGPAIFIGWAGSALVILGGALLSCSCPGNESKAGYRVPRSYPKSNSSKEYV [chain 1 V70A] are 0.39 a.u and 0.8 a.u.
On the same counts, the results for MANSGLQLLGFSMALLGWVGLVACTAIPQWQMSSYAGDNIITAQAMYKGLWMDCVTQSTGMMSCKMYDSVLALSAALQATAALMVVSLVLGFLAMFVATMGMKCTRCGGDDKVKKARIAMGGGIIFIVAGLAALVACSWYGHQIVTDFYNPLIPTNIKYEFGPAIFIGWAGSALVILGGALLSCSCPGNESKAGYRVPRSYPKSNSSKEYV [chain 1 R81A] are 0.7 a.u and 0.91 a.u.
In the case of MANSGLQLLGFSMALLGWVGLVACTAIPQWQMSSYAGDNIITAQAMYKGLWMDCVTQSTGMMSCKMYDSVLALSAALQATRALMVVSLVLGFLAMFVATMGMKCTRCGGDDKVKKARIAMGGGIIFIVAGLAALVACSWYGHQIVTDFANPLIPTNIKYEFGPAIFIGWAGSALVILGGALLSCSCPGNESKAGYRVPRSYPKSNSSKEYV [chain 1 Y149A], the screen value by setting is: (0 mM NaCl) 0.67 a.u; (300 mM NaCl) 0.96 a.u.
MANSGLQLLGFSMALLGWVGLVACTAIPQWQMSSYAGDNIITAQAMYKGLWMDCVTQSTGMMSCKMYDSVLALSAALQATRALMVVSLVLGFLAMFVATMGMKCTRCGGDDKVKKARIAMGGGIIFIVAGLAALVACSWYGHQIVTDFYNPLIPTNIKYAFGPAIFIGWAGSALVILGGALLSCSCPGNESKAGYRVPRSYPKSNSSKEYV [chain 1 E160A]: the screen value by setting is: (0 mM NaCl) 0.38 a.u; (300 mM NaCl) 0.87 a.u.
On the same counts, the results for MANSGLQLLGFSMALLGWVGLVACTAIPQWQMSSYAGDNIITAQAMYKGLWMDCVTQSTGMMSCKMYDSVLALSAALQATAALMVVSLVLGFLAMFVATMGMKCTRCGGDDKVKKARIAMGGGIIFIVAGLAALVACSWYGHQIVTDFANPLIPTNIKYEFGPAIFIGWAGSALVILGGALLSCSCPGNESKAGYRVPRSYPKSNSSKEYV [chain 1 R81A Y149A] are 0.7 a.u and 0.82 a.u.
In the case of MANSGLQLLGFSMALLGWVGLVACTAIPQWQMSSYAGDNIITAQAMYKGLWMDCVTQSTGMMSCKMYDSVLALSAALQATRALMVVSLVLGFLAMFVATMGMKCTRCGGDDKVKKARIAMGGGIIFIVAGLAALVACSWYGHQIVTDFYNPLIPTNIKYEAGPAIFIGWAGSALVILGGALLSCSCPGNESKAGYRVPRSYPKSNSSKEYV [chain 1 F161A], the screen value is 0.39 a.u (0 mM NaCl) and 0.85 a.u (300 mM NaCl).
